The values that follow are results of earlier work, collected in article PMC6191370.

The target of one series is CD25 (Homo sapiens) (UniProt P01589).
Series [1] deals with intermediate-affinity IL-2R (beta/gamma chains) (Homo sapiens) (UniProt P14784).
UniProt P14784, sequence (P14784 27-240, chain 1 of 2): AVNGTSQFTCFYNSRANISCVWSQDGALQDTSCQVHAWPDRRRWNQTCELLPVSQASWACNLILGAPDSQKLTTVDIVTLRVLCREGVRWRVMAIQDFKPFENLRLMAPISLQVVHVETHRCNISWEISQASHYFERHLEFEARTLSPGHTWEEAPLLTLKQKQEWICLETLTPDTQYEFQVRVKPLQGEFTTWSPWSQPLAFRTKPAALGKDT
UniProt P14784, sequence (P31785 23-262, chain 2 of 2, further chain): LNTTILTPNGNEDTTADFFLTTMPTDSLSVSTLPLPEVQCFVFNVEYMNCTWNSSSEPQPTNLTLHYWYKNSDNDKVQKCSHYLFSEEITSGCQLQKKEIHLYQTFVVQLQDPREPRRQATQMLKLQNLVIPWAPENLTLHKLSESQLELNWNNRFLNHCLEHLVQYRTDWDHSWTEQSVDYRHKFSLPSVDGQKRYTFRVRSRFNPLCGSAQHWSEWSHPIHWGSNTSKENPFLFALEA

UniProt P01589, sequence (P01589 22-240): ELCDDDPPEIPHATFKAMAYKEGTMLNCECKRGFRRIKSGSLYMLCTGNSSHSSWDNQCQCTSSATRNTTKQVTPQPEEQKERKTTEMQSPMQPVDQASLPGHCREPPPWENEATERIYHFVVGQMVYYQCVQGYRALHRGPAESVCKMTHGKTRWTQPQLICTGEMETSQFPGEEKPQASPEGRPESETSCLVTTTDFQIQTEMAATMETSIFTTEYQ

Regarding IL-2 (from UniProt P60568), the Kd (commonly the equilibrium constant for the complex coming apart) in the series with CD25 (Homo sapiens) was 10 nM; in series [1] it was 1 nM.
